In US20240425569A1 (VISTERRA, published 2024):
Changes are numbered by the printed parent chain. Read-outs that look alike come from different tables or passages of the source.

Legend:
[1] = target: T1, Singapore/2009 (serotype III EDIII)
T1 construct: also called ED3-DV3/Sing09; DENV-3 Sing
T1 E protein domain III (EDIII): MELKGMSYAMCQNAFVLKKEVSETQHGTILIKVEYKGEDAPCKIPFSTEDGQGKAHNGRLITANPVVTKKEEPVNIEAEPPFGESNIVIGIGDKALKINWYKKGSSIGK

[2] = target: T2, EDIII-DV3 (E protein domain III of dengue virus serotype DV-3) (dengue virus serotype DV-3, UniProt P27915 571-678); assay: competition ELISA
T2 construct: also called DENV-3; EDIII of DV-3

[3] = target: T3, EDIII-DV1 (E protein domain III of dengue virus serotype DV-1) (dengue virus serotype DV-1, UniProt P17763 573-680); assay: competition ELISA
T3 construct: also called DENV-1; EDIII of DV-1
T3 chain: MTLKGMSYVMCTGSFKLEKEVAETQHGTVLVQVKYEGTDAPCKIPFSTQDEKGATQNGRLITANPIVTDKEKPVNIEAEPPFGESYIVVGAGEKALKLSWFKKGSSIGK

[4] = target: T2, EDIII-DV3 (E protein domain III of …)
[5] = target: T4, EDIII-DV4 (E protein domain III of dengue virus serotype DV-4) (dengue virus serotype DV-4, UniProt P09866 572-679)
T4 construct: also called DENV-4

[6] = target: T5, Vietnam/2008 (serotype I EDIII)
T5 construct: also called ED3-DV1/Viet08
T5 E protein domain III (EDIII): T3 chain with V21L, V33I, A54V, V89I

[7] = target: T6, Philippines/1956 (H87)* (serotype III EDIII) (Dengue virus 3)
T6 construct: isolated EDIII protein

[8] = target: T7, Nicaragua/2010 (serotype III EDIII)
T7 construct: also called ED3-DV3/Nicaragua10; DENV-3 Nic
T7 E protein domain III (EDIII): T1 E protein domain III (EDIII) with Q12T, A14T, A40V, K94N

[9] = target: T8, New Caledonia/2009 (serotype IV EDIII); assay: Kd table, method not stated; Ag DENV-4 NC
T8 construct: also called ED3-DV4/NewCal09; DENV-4 NC
T8 E protein domain III (EDIII): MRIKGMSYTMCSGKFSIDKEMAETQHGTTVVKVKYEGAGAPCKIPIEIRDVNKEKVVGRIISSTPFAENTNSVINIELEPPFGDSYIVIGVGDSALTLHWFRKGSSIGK

[10] = target: T9, ED3-DV4/H241/Phil56 (EDIII of DENV-4 strain H241) (dengue virus serotype DENV-4, strain …, UniProt Q58HT7 572-679)
[11] = target: T10, Venezuela/2008 (serotype IV EDIII); assay: ELISA; row Venezuela/2008, serotype IV, genotype IIa
T10 E protein domain III (EDIII): T8 E protein domain III (EDIII) with I44V, I60V, S63A, F66L, I74T, D93N

[12] = target: T4, EDIII-DV4 (E protein domain III of …); remark: listed apart in the source
[13] = target: dengue virus DENV-3 strain Philippines/1956 (H87) (live virus; E protein) (dengue virus serotype DENV-3, strain …, UniProt P27915 281-773); assay: cell-based or functional assay
[14] = target: dengue virus DENV-1 strain Hawaii/1944 (live virus; E protein) (dengue virus serotype DENV-1, strain …); assay: cell-based or functional assay
[15] = target: dengue virus DENV-2 strain New Guinea/1944 (NGC) (live virus; E protein) (dengue virus serotype DENV-2, strain …, UniProt P14340 281-775); assay: cell-based or functional assay
[16] = target: dengue virus DENV-4 strain Mexico/1997 (BC287/97) (live virus; E protein) (dengue virus serotype DENV-4, strain …); assay: cell-based or functional assay
[17] = target: T11, Cambodia/2008 (serotype III EDIII); assay: SPR; row Cambodia/2008, serotype III, genotype II
T11 construct: Genotype II; also called ED3-DV3/Cambodia08
T11 E protein domain III (EDIII): T1 E protein domain III (EDIII) with Q12L, A14T, N57S

[18] = target: T12, Brazil/2011 (serotype IV EDIII); assay: ELISA; row Brazil/2011, serotype IV, genotype I
T12 E protein domain III (EDIII): T8 E protein domain III (EDIII) with V33I, A38T, I44V, I74T

[19] = target: T9, ED3-DV4/H241/Phil56 (EDIII of DENV-4 …); assay: Kd table, method not stated; Ag DENV-4 Phil
[20] = target: T2, EDIII-DV3 (E protein domain III of …); remark: listed apart in the source

B1: antibody D88 (antibody, V domains shown)
VH: QVQLVQSGAEVKKPGASVKVSCKAGFNIKDVYMSWVRQAPEQGLEWMGRIDPENGDTKYDPKLQGRVTMTADTSTNTAYMELRSLRSDDTAVYYCARGWEGFAYWGQGTLVTVSS
VL: DIVMTQSPASLAVSLGERATISCRASENVDKYGNSFMHWYQQKPGQPPKLLIYRASELQWGVPDRFSGSGSGTDFTLTISSLQAEDVAVYYCQRSNEVPWTFGQGTKLEIK
notes: also called mAb D88
Kd [1]: 0.61 nM | Kd [2]: 1.21 nM | Kd [3]: < 0.1 nM | Kd [4]: 1.05 nM | Kd [5]: 5.01 nM | Kd [6]: 0.031 nM | Kd [7]: 1.2 nM | Kd [8]: 3.3 nM | Kd [9]: 10.8 nM | Kd [10]: 100 nM | Kd [11]: 4.5 nM | Kd [12]: 3.8 nM | EC50, FRNT [13]: < 1 µg/mL | EC50, FRNT [14]: < 1 µg/mL | EC50, FRNT [15]: < 1 µg/mL | EC50, FRNT [16]: < 1 µg/mL | Kd [17]: 2.47 nM | Kd [18]: 14.7 nM | Kd [19]: 148 nM | Kd [20]: 1 nM
